From publication PMC9021268 come the findings set out here.

The target of test [1] is Dynamic microtubules, coverslip-anchored (grown from GMPCPP-stabilized seeds with unpolymerized tubulin) (bovine) (UniProt Q6B856). In words: optical trap force clamp (detachment of kinetochore-decorated beads from microtubule tips); high density of kinetochores on anti-His beads (Dsn1:bead ratio 3,300); coverslip-anchored dynamic microtubules; ~1 pN; 3 nM Dam1c and ATP in the buffer; 5 μM AurB*-KD flowed in.

Test [2] has the same target. In words: optical trap force clamp (detachment of kinetochore-decorated beads from microtubule tips); low density of kinetochores on anti-His beads (Dsn1:bead ratio 200); coverslip-anchored dynamic microtubules; 5 pN; 3 nM Dam1c and ATP in the buffer; 0.5 μM AurB*-KD flowed in.
The target is the same in test [3]. Kind of test: optical trap force clamp (detachment of kinetochore-decorated beads from microtubule tips); low density of kinetochores on anti-His beads (Dsn1:bead ratio 200); coverslip-anchored dynamic microtubules; 1.5 pN; 3 nM Dam1c and ATP in the buffer; 0.5 μM AurB*-KD flowed in.
The target is the same in test [4]. In words: optical trap force clamp (detachment of kinetochore-decorated beads from microtubule tips); high density of kinetochores on anti-His beads (Dsn1:bead ratio 3,300); coverslip-anchored dynamic microtubules; ~1 pN; 3 nM Dam1c and ATP in the buffer; 0.5 μM active AurB* flowed in.
For test [5] the target is unchanged. Kind of test: optical trap force clamp (detachment of kinetochore-decorated beads from microtubule tips); low density of kinetochores on anti-His beads (Dsn1:bead ratio 200); coverslip-anchored dynamic microtubules; 1.5 pN; 3 nM Dam1c and ATP in the buffer; 0.5 μM active AurB* flowed in.
For test [6] the target is unchanged. In words: optical trap force clamp (detachment of kinetochore-decorated beads from microtubule tips); low density of kinetochores on anti-His beads (Dsn1:bead ratio 200); coverslip-anchored dynamic microtubules; 5 pN; 3 nM Dam1c and ATP in the buffer; 0.5 μM active AurB* flowed in.
The target is the same in test [7]. Kind of test: optical trap force clamp (detachment of kinetochore-decorated beads from microtubule tips); high density of kinetochores on anti-His beads (Dsn1:bead ratio 3,300); coverslip-anchored dynamic microtubules; ~1 pN; 3 nM Dam1c and ATP in the buffer; 5 μM active AurB* flowed in.
Another test concerns the target tubulin (microtubules). In words: optical trap tip-attachment detachment rate.
Setting [8] is: reference: 5 µM AurB*-KD flowed in.

Chain of UniProt Q6B856 (Q6B856 whole entry, looked up): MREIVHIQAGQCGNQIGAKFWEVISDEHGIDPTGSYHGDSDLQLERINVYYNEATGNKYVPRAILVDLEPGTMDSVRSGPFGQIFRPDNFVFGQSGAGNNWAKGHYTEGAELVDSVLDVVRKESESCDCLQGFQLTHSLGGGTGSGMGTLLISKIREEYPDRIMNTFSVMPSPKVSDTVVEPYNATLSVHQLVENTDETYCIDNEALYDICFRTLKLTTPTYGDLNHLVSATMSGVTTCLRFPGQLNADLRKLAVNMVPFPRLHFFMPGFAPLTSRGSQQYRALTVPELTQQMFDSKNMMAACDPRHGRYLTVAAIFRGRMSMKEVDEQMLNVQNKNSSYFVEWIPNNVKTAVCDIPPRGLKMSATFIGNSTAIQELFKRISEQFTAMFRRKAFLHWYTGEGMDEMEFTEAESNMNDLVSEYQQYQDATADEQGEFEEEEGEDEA

For the substance “Mps1-1 kinetochores (native kinetochores purified from budding yeast strain SBY8726) (from UniProt P40568 1-576; P40460 1-691; P53148 1-917) (complex)”, the detachment rate in test [1] amounted to 2.3 h⁻¹; in test [2], 7 h⁻¹; in test [3], 10.4 h⁻¹; in test [4], 4.6 h⁻¹; in test [5], 28.9 h⁻¹; in test [6], 7 h⁻¹. The detachment rate in test [7] was found to be 7.2 h⁻¹.

Take “Ndc80 (from UniProt P40460) 0.5 µM AurB* flowed in”: the “other: detachment rate” value in the test with tubulin (microtubules) (reference: 0.5 µM AurB*-KD flowed in) was “weaker; reference 10.4 ± 3.3”; in the test with tubulin (microtubules) (setting [8]), “weaker; reference 2.3 ± 0.9”.

Regarding “Ndc80 (from UniProt P40460) 5 µM AurB* flowed in”, in the test with tubulin (microtubules) (setting [8]), the “other: detachment rate” value is given as “weaker; reference 2.3 ± 0.9”.
